Test results as given in patent publication EP3505186B1, “NUCLEOPHILIC CATALYSTS FOR OXIME LINKAGE” (Takeda Pharmaceutical Company Limited, priority 2010, dated 2012).

Experiments:
[1] = Specific activity of the EPO conjugate: biological activity by methods known in the art and total protein (Bradford)
FIX chromogenic activity = assay: Specific activity of the rFIX conjugate: FIX chromogenic (and clotting) activity and total protein; assay type: biochemical
Method: The free rFIX was removed by means of anion exchange chromatography (AEC). The reaction mixture was diluted with 15 ml Buffer A (50 mM Hepes, 5 mM CaCl2, pH 7.5) and loaded onto a 20 ml HiPrep QFF 16/10 column (GE Healthcare, Fairfield, CT) pre-equilibrated with Buffer A. The column was then eluted with Buffer B (50 mM Hepes, 1 M NaCl, 5 mM CaCl2, pH 7.5). Free rFIX elutes at a conductivity between 12-25 mS/cm and the conjugate between 27-45 mS/cm. The conductivity of the conjugate containing fractions was subsequently raised to 190 mS/cm with Buffer C (50 mM Hepes, 5M NaCl, 5 mM CaCl2, pH 6.9) and loaded onto a 20 ml HiPrep Butyl FF 16/10 column (GE Healthcare, Fairfield, CT) pre-equilibrated with Buffer D (50 mM Hepes, 3 M NaCl, 5 mM CaCl2, pH 6.9). Free aminooxy-PSA reagent was washed out within 5 CV Buffer D. Subsequently the conjugate is eluted with 100 % Buffer E (50 mM Hepes, 5 mM CaCl2, pH 7.4). The conjugate containing fractions were concentrated by UF/DF using Vivaspin 15R 10 kD centrifugal filtrator. The final diafiltration step was performed against histidine buffer, pH 7.2 containing 150 mM NaCl and 5 mM CaCl2. The preparation was analytically characterized by measuring total protein (Bradford) and FIX chromogenic activity.
The free rFIX is removed by means of anion exchange chromatography (AEC). The reaction mixture is diluted with appropriate amounts of Buffer A (50 mM Hepes, 5 mM CaCl2, pH 7.5) to correct the solutions conductivity and pH prior to load onto a 20 ml HiPrep QFF 16/10 column (GE Healthcare, Fairfield, CT) pre-equilibrated with buffer A. Then the column is eluted with Buffer B (50 mM Hepes, 1 M NaCl, 5 mM CaCl2, pH 7.5). Free rFIX is eluted by a step gradient using 25 % of Buffer B, which results in a conductivity between 12-25 mS/cm in the obtained fraction and the conjugate using a step gradient of 50 % Buffer B, which results in a conductivity between between 27-45 mS/cm in the conjugate fraction. […] Free aminooxy-PSA reagent is washed out within 5 CV Buffer D. Subsequently, the conjugate is eluted with 100 % Buffer E (50 mM Hepes, 5 mM CaCl2, pH 7.4). The conjugate containing fractions are concentrated by UF/DF using a 10 kD membrane made of regenerated cellulose (88 cm2, cut-off 10 kD, Millipore). The final diafiltration step is performed against L-histidine buffer, pH 7.2 containing 150 mM NaCl and 5 mM CaCl2. The preparation is analytically characterized by measuring total protein (Bradford and BCA procedure) and FIX chromogenic- and clotting activity. For the PSA-rFIX conjugate a specific activity of > 50 % in comparison to native rFIX is determined.
The free rFIX was removed by means of anion exchange chromatography (AEC). […]

With “PSA-EPO conjugate: erythropoietin polysialylated with 20 kD aminooxy-PSA reagent, m-toluidine as catalyst” the “specific activity in comparison to native EPO” value ([1]; Reference Example 18 Method 1, alternative procedure (oxidation, then m-toluidine and 20 kD aminooxy-PSA, 5-fold)) was > 50% and the “specific activity in comparison to native EPO” value ([1]; Reference Example 18 Method 3, alternative procedure (simultaneous, 20 kD aminooxy-PSA, 5-fold)) was > 50%.
For “PEG-EPO conjugate: EPO PEGylated with a linear 20 kD PEGylation reagent containing an aminooxy group, m-toluidine as catalyst”, the “specific activity in comparison to native EPO” value ([1]; Reference Example 32 Method 1, alternative (oxidation, then m-toluidine and 20 kD aminooxy-PEG, 5-fold)) was > 50% and the “specific activity in comparison to native EPO” value ([1]; Reference Example 32 Method 3, alternative (simultaneous, 20 kD aminooxy-PEG, 5-fold)) was > 50%.
In the case of “PSA-rFIX conjugate: rFIX polysialylated via oxidized carbohydrate with 20 kD aminooxy-PSA reagent, m-toluidine as catalyst”, the “specific activity in comparison to native rFIX” value (FIX chromogenic activity; Reference Example 11 Method 1 (oxidation, UF/DF, then m-toluidine and 20 kD aminooxy-PSA), FIX chromogenic activity, Bradford) is reported as > 50%, the “specific activity in comparison to native rFIX” value (FIX chromogenic activity; Reference Example 11 Method 2 (oxidation, UF/DF, then 10 mM m-toluidine and 20 kD aminooxy-PSA), FIX chromogenic- and clotting activity, Bradford and BCA) is reported as > 50% and the “specific activity in comparison to native rFIX” value (FIX chromogenic activity; Reference Example 11 Method 3 (simultaneous periodate, m-toluidine, 20 kD aminooxy-PSA), FIX chromogenic activity, Bradford) is reported as > 50%. The “specific activity in comparison to native rFIX” value (FIX chromogenic activity; Reference Example 11 Method 4 (simultaneous, 2 mg rFIX / ml), FIX chromogenic- and clotting activity, Bradford and BCA) was > 50%.
